From publication PMC4256367

Target: hTau40 (Tau, 2N4R) 1-441 (UniProt P10636)
Assay: fluorescence lifetime (TCSPC) over time
[1] = reference: unlabelled P0-Tau (E. coli), sites S202,T205,T212,S214,T231,S235,S262,S356,S396,S404,Y310,S324,T153

hTau40 (Tau, 2N4R) 1-441 (from UniProt P10636-8) unlabelled P12-Tau (Sf9)
other: final average lifetime [1]: stronger; reference 3.8

hTau40 (Tau, 2N4R) 1-441 (from UniProt P10636-8) P20-Tau (Sf9 cells treated with okadaic acid)
other: final average lifetime (reference: P12-Tau (Sf9, no okadaic acid)): stronger; reference 0.6

hTau40 (Tau, 2N4R) 1-441 (from UniProt P10636-8) P12-Tau incubated with alkaline phosphatase (P4-Tau)
other: final average lifetime (reference: P12-Tau untreated, sites S202,T205,T212,S214,T231,S235,S262,S356,S396,S404): weaker; reference 0.6

hTau40 (Tau, 2N4R) 1-441 (from UniProt P10636-8) unlabelled P20-Tau (Sf9 + okadaic acid)
other: final average lifetime [1]: stronger; reference 3.8
